Patent US20040091907

Key:
[1] = target: T1, GEF-H1 peptide, amino acids 55-72
T1 chain: RQSLLGSRRGRSSLSLAK

[2] = target: GST-Maguin-2-like fusion protein (amino acids 385-555) [GST: P08515]
[3] = target: GST (Glutathione-S-transferase) [GST: P08515]
[4] = target: T2, GST-GEF-H1S (aa763-921)
T2 chain: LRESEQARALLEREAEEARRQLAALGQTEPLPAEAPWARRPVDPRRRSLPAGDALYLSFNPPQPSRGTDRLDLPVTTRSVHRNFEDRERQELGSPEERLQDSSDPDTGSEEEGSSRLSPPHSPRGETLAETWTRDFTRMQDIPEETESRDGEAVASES

[5] = target: T3, GEF-H1 peptide, amino acids 807-824 (unphosphorylated)
T3 chain: RRRSLPAGDALYLSFNPP

[6] = target: T4, GEF-H1 peptide 807-824 with phospho-serine at position 810
T4 chain: RRRSLPAGDALYLSFNPP

GST (Glutathione-S-transferase) [GST: P08515], sequence (P08515 whole entry, the tested form may be a part): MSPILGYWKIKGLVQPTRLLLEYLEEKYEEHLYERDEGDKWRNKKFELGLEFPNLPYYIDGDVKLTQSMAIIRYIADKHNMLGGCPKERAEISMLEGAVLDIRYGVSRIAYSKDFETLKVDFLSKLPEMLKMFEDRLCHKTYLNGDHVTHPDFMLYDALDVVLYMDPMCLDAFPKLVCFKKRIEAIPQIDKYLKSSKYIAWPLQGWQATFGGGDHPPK
GST-Maguin-2-like fusion protein (amino acids 385-555) [GST: P08515], sequence (P08515 whole entry, looked up, the tested form may be a part): as the sequence (P08515 whole entry, the tested form may be a part) above

B1: Glutathione-s-transferase (GST) fused PAK4 (residues 291-591) (protein)
chain: SPQREPQRVSHEQFRAALQLVVDPGDPRSYLDNFIKIGEGSTGIVCIATVRSSGKLVAVKKMDLRKQQRRELLFNEVVIMRDYQHENVVEMYNSYLVGDELWVVMEFLEGGALTDIVTHTRMNEEQIAAVCLAVLQALSVLHAQGVIHRDIKSDSILLTHDGRVKLSDFGFCAQVSKEVPRRKSLVGTPYWMAPELISRLPYGPEVDIWSLGIMVIEMVDGEPPYFNEPPLKAMKMIRDNLPPRLKNLHKVSPSLKGFLDRLLVRDPAQRATAAELLKHPFLAKAGPPASIVPLMRQNRTR
[1]
  phosphorylation in in vitro kinase assays: are phosphorylated by PAK4
[2]
  phosphorylation in an in vitro kinase assay: weakly phosphorylated the GST-Maguin-2-like fusion protein
[3]
  phosphorylation in an in vitro kinase assay: PAK4 fails to phosphorylate the GST control
  phosphorylation in an in vitro kinase reaction (SDS-PAGE, autoradiograph): no phosphorylation of the fusion partner GST
[4]
  Km (in vitro kinase assay): Km is the 1 to 5 uM range
  phosphorylation in an in vitro kinase reaction (SDS-PAGE, autoradiograph): The autoradiograph showed phosphorylation of the GEF-H1S polypeptide
[5]
  Km (in vitro kinase assay): also a high affinity substrate for PAK4 with a similar Km for PAK4 as the GST-GEF-H1 (793-921) fusion protein
  phosphorylation in in vitro kinase assays: are phosphorylated by PAK4
[6]
  phosphorylation in an in vitro kinase assay: Peptides with phospho-serine at position 810 were no longer substrates for PAK4
